From US11369662B2 (The Medical College of Wisconsin, Inc., priority 2014, dated 2022)
Entries after “also recorded” stand apart in the source; their conditions may differ.

Key:
U-937 cells = experiment: Agarose microdroplet assay of U-937 migration; assay type: cell-based; conditions: 18-24 h, serum-containing media
Description: Agarose microdroplet assay. The agarose microdroplet assay was performed to determine U-937 cellular migration, as previously described. 0.5×10^6 cells/ml U-937 target cells were harvested and washed in HBSS. Cells were spun at 2,000 rpm and were transferred to a graduated 15 ml glass conical tube. The cell concentration was adjusted in agarose medium, prepared from 2% low melting temperature Seaplaque agarose and medium containing 15% FBS, using a 1:4 volume-to-volume dilution. A 1 μl agarose droplet containing 1-10^5 target cells was placed in the center of each well of a 96-well flat-bottom tissue culture plate, in triplicate, using a gastight 0.05 ml Hamilton syringe (Hamilton Company, Reno, Nev.). Droplets were allowed to harden at 4° C. for 20 min. 200 μl chilled test media was applied to each well. […] The plate was incubated for 18-24 h at 37° C. and 5% CO2. Following incubation, the radius of each droplet was determined and target cell migration was measured at four directional points 900 from one another, using an inverted light microscope equipped with a gridded eyepiece, at 40× total magnification. Percent inhibition of each sample was quantified. The plate was incubated for an additional 24 h to measure recovery, and viability was determined by trypan blue exclusion.
Agarose microdroplet assay. The agarose microdroplet assay was performed to determine U-937 cellular migration, as previously described {AdeCXCL121an, 1980 #1609}. 0.5×10^6 cells/ml U-937 target cells were harvested and washed in HBSS. Cells were spun at 2,000 rpm and were transferred to a graduated 15 ml glass conical tube. […] Following incubation, the radius of each droplet was determined and target cell migration was measured at four directional points 900 from one another, using an inverted light microscope equipped with a gridded eyepiece, at 40× total magnification. Percent inhibition of each sample was quantified. The plate was incubated for an additional 24 h to measure recovery, and viability was determined by trypan blue exclusion.

CXCL12WT dimerization = target: T1, CXCL12WT dimerization (Homo sapiens, UniProt P48061); experiment: Intrinsic tryptophan fluorescence polarization assay of CXCL12WT dimerization; assay type: binding; conditions: for ΔGdimer: 298 K
T1 construct: made in house
T1 sequence (P48061 22-89): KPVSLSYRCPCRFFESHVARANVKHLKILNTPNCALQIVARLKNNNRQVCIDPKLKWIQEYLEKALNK
Description: Fluorescence polarization assay. Fluorescence polarization (FP) assays were performed on a PTI spectrofluorometer equipped with automated polarizers, using a time base polarization method provided by the program Felix32. […] Experiments were performed in duplicate and the reported dimerization Kd values reflect the average of both experiments.

CXCR4 [1] = target: T2, CXCR4 (Homo sapiens, UniProt P61073); experiment: β-arrestin-2 recruitment BRET assay in HEK293 cells; assay type: cell-based; conditions: concentrations increased to 10 and 100 μM
T2 construct: purchased Millipore
T2 sequence (P61073 whole entry): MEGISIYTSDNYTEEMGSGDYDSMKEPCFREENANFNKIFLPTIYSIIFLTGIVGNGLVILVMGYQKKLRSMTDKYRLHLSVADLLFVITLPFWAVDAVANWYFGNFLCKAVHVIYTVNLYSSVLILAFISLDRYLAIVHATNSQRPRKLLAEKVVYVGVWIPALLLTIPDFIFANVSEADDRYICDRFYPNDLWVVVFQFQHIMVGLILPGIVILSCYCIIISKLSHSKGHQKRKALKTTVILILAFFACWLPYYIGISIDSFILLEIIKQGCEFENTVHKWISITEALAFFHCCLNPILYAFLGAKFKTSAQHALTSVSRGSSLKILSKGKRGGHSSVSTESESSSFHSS
Description: β-arrestin-2 recruitment. β-arrestin-2 recruitment was measured using an intermolecular BRET assay performed as described previously. HEK293E cells were cotransfected with […] of CXCR4-eYFP construct with […] of β-arrestin-2-RLuc (a gift from Michel Bouvier, University of Montreal, Montreal, QC, Canada). For [acceptor]/[donor]titrations […] of β-arrestin-2-RLuc were cotransfected with increasing amounts of the CXCR4-eYFP construct. All transfections were completed to 2 mg/well with empty vector. […] Cells were washed once with PBS, and the RLuc substrate coelenterazine-II (NanoLight Technology) was added at a final concentration of […] to BRET buffer (PBS, 0.5 mM MgCl2, 0.1% w/v glucose). β-arrestin recruitment was measured 30 min after ligand addition. […]
β-arrestin-2 recruitment. β-arrestin-2 recruitment was measured using an intermolecular BRET assay performed as described previously. […] The medium of the cells was then changed to BRET buffer (PBS, 0.5 mM MgC2, 0.1% (w/v) BSA). β-arrestin-2 recruitment was measured 15 min after ligand addition, and 10 min after the addition of the RLuc3 substrate coelenterazine400a (NanoLight Technology) at a final concentration of […]. […]

CXCR4 [2] = target: T2, CXCR4; experiment: Radioligand displacement of 125I-CXCL12 from CXCR4 membrane preparations; assay type: binding; conditions: relative to CXCL12WT
Description: Radioligand displacement. Commercial membrane preparations of cells stably expressing CXCR4 or CXCR7 were purchased (Millipore). Five micrograms of protein per point was incubated for 90 min on ice in binding buffer with 0.03 nM of […] as a tracer and increasing concentrations of competitor in a final 40 μL volume. Bound radioactivity was separated from free ligand by filtration, and receptor-bound radioactivity was quantified by gamma-radiation counting (Perkin-ECXCL121er Life and Analytical Sciences). Isolated membrane binding experiments were carried out in duplicate.

CXCR41-38 = target: T3, CXCR41-38 (Homo sapiens, UniProt P61073, C28A); experiment: Binding of CXCL12 variants to CXCR41-38 by 2D NMR chemical shift perturbation; conditions: nonlinear fitting of chemical shift perturbations, quadratic binding equation; read-out: Kd (affinity for CXCR41-38)
T3 construct: comprising the first 38 amino acids of CXCR4 preceded by a residual GlyMet dipeptide tag; made in house
T3 sequence (P61073 1-38 C28A): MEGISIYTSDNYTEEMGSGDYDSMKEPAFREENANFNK
Description: Total peptide additions differed for individual peptide titrations but ranged from 0-160 equivalencies. Spectra were processed using in-house scripts and chemical shift tracking was performed using CARA software. […] For a given interaction, residues with the largest chemical shift perturbations were fitted individually.

ΔGdimer (CXCL12WT dimerization; pathway 1: dimerization after sTyr21 sulfopeptide binding) [kcal mol^−] | ΔGdimer (CXCL12WT dimerization; pathway 2: dimerization before sulfopeptide binding) [kcal mol^−] | Kd (CXCL12WT dimerization; read-out: Kd for CXCL12WT dimerization, in the presence of 50 mM sulfotyrosine) [mM] | recognition of the full-length receptor in comparison to CXCL12WT (CXCR4 [2]) | Kd (CXCR41-38) [mM] | Substance | maximal inhibition of U-937 cell migration (U-937 cells) [%] | shape of β-arrestin-2 recruitment dose response (CXCR4 [1])
−3.5 | −2.5 | 9.3 ± 1.8 |  |  | CXCL12WT: wild type CXCL12 (stromal cell-derived factor-1/SDF-1), SEQ ID NO:1 | 40.1±18 | bimodal recruitment; also recorded: bimodal stimulation
 |  |  | six-times weaker | 0.0009 ± 0.0003 | CXCL122: constitutively dimeric variant of CXCL12 containing L36C/A65C mutations |  | 
